For this test, the system named is HCoV-OC43 gRNA and sgRNA. The test is classed as binding. Conditions: for target (unweighted spectral count): OC43 Probe II, 12 hpi (type n_12_v), infected cells, tested against no-probe control; for target (unweighted spectral count, OC43 Probe II) / background (unweighted spectral count, no-probe control): type n_48_v, 48 hpi; for target (unweighted spectral count, OC43 Probe II): OC43 Probe II capture on infected cells; for background (unweighted spectral count, no-probe control): no-probe control on infected cells.

B1: TMPO (protein, UniProt P42166 2-694, looked up)
Lamina-associated polypeptide …: PEFLEDPSVLTKDKLKSELVANNVTLPAGEQRKDVYVQLYLQHLTARNRPPLPAGTNSKGPPDFSSDEEREPTPVLGSGAAAAGRSRAAVGRKATKKTDKPRQEDKDDLDVTELTNEDLLDQLVKYGVNPGPIVGTTRKLYEKKLLKLREQGTESRSSTPLPTISSSAENTRQNGSNDSDRYSDNEEGKKKEHKKVKSTRDIVPFSELGTTPSGGGFFQGISFPEISTRPPLGSTELQAAKKVHTSKGDLPREPLVATNLPGRGQLQKLASERNLFISCKSSHDRCLEKSSSSSSQPEHSAMLVSTAASPSLIKETTTGYYKDIVENICGREKSGIQPLCPERSHISDQSPLSSKRKALEESESSQLISPPLAQAIRDYVNSLLVQGGVGSLPGTSNSMPPLDVENIQKRIDQSKFQETEFLSPPRKVPRLSEKSVEERDSGSFVAFQNIPGSELMSSFAKTVVSHSLTTLGLEVAKQSQHDKIDASELSFPFHESILKVIEEEWQQVDRQLPSLACKYPVSSREATQILSVPKVDDEILGFISEATPLGGIQAASTESCNQQLDLALCRAYEAAASALQIATHTAFVAKAMQADISQAAQILSSDPSRTHQALGILSKTYDAASYICEAAFDEVKMAAHTMGNATVGRRYLWLKDCKINLASKNKLASTPFKGGTLFGGEVCKVIKKRGNKH
On to B1, for which the “target (unweighted spectral count)” value amounted to 4.

B2: PATLI (protein, UniProt Q86TB9 1-770, looked up)
Protein PAT1 homolog 1: MFRYESLEDCPLDEDEDAFQGLGEEDEEIDQFNDDTFGSGAVDDDWQEAHERLAELEEKLPVAVNEQTGNGERDEMDLLGDHEENLAERLSKMVIENELEDPAIMRAVQTRPVLQPQPGSLNSSIWDGSEVLRRIRGPLLAQEMPTVSVLEYALPQRPPQGPEDDRDLSERALPRRSTSPIIGSPPVRAVPIGTPPKQMAVPSFTQQILCPKPVHVRPPMPPRYPAPYGERMSPNQLCSVPNSSLLGHPFPPSVPPVLSPLQRAQLLGGAQLQPGRMSPSQFARVPGFVGSPLAAMNPKLLQGRVGQMLPPAPGFRAFFSAPPSATPPPQQHPPGPGPHLQNLRSQAPMFRPDTTHLHPQHRRLLHQRQQQNRSQHRNLNGAGDRGSHRSSHQDHLRKDPYANLMLQREKDWVSKIQMMQLQSTDPYLDDFYYQNYFEKLEKLSAAEEIQGDGPKKERTKLITPQVAKLEHAYKPVQFEGSLGKLTVSSVNNPRKMIDAVVTSRSEDDETKEKQVRDKRRKTLVIIEKTYSLLLDVEDYERRYLLSLEEERPALMDDRKHKICSMYDNLRGKLPGQERPSDDHFVQIMCIRKGKRMVARILPFLSTEQAADILMTTARNLPFLIKKDAQDEVLPCLLSPFSLLLYHLPSVSITSLLRQLMNLPQSAATPALSNPHLTAVLQNKFGLSLLLILLSRGEDLQSSDPATESTQNNQWTEVMFMATRELLRIPQAALAKPISIPTNLVSLFSRYVDRQKLNLLETKLQLVQGIR
For the molecule B2, the “target (unweighted spectral count, OC43 Probe II)” value came out at 5 and the “background (unweighted spectral count, no-probe control)” value is listed as 1.

B3: ZNF622 (protein, UniProt Q969S3 2-477, looked up)
Cytoplasmic 60S subunit …: ATYTCITCRVAFRDADMQRAHYKTDWHRYNLRRKVASMAPVTAEGFQERVRAQRAVAEEESKGSATYCTVCSKKFASFNAYENHLKSRRHVELEKKAVQAVNRKVEMMNEKNLEKGLGVDSVDKDAMNAAIQQAIKAQPSMSPKKAPPAPAKEARNVVAVGTGGRGTHDRDPSEKPPRLQWFEQQAKKLAKQQEEDSEEEEEDLDGDDWEDIDSDEELECEDTEAMDDVVEQDAEEEEAEEGPPLGAIPITDCLFCSHHSSSLMKNVAHMTKDHSFFIPDIEYLSDIKGLIKYLGEKVGVGKICLWCNEKGKSFYSTEAVQAHMNDKSHCKLFTDGDAALEFADFYDFRSSYPDHKEGEDPNKAEELPSEKNLEYDDETMELILPSGARVGHRSLMRYYKQRFGLSRAVAVAKNRKAVGRVLQQYRALGWTGSTGAALMRERDMQYVQRMKSKWMLKTGMKNNATKQMHFRVQVRF
Turning to B3, the “target (unweighted spectral count, OC43 Probe II)” value is reported as 5 and the “background (unweighted spectral count, no-probe control)” value is listed as 1.

B4: POLG (protein, UniProt P54098 1-1239, looked up)
DNA polymerase subunit gamma-1: MSRLLWRKVAGATVGPGPVPAPGRWVSSSVPASDPSDGQRRRQQQQQQQQQQQQQPQQPQVLSSEGGQLRHNPLDIQMLSRGLHEQIFGQGGEMPGEAAVRRSVEHLQKHGLWGQPAVPLPDVELRLPPLYGDNLDQHFRLLAQKQSLPYLEAANLLLQAQLPPKPPAWAWAEGWTRYGPEGEAVPVAIPEERALVFDVEVCLAEGTCPTLAVAISPSAWYSWCSQRLVEERYSWTSQLSPADLIPLEVPTGASSPTQRDWQEQLVVGHNVSFDRAHIREQYLIQGSRMRFLDTMSMHMAISGLSSFQRSLWIAAKQGKHKVQPPTKQGQKSQRKARRGPAISSWDWLDISSVNSLAEVHRLYVGGPPLEKEPRELFVKGTMKDIRENFQDLMQYCAQDVWATHEVFQQQLPLFLERCPHPVTLAGMLEMGVSYLPVNQNWERYLAEAQGTYEELQREMKKSLMDLANDACQLLSGERYKEDPWLWDLEWDLQEFKQKKAKKVKKEPATASKLPIEGAGAPGDPMDQEDLGPCSEEEEFQQDVMARACLQKLKGTTELLPKRPQHLPGHPGWYRKLCPRLDDPAWTPGPSLLSLQMRVTPKLMALTWDGFPLHYSERHGWGYLVPGRRDNLAKLPTGTTLESAGVVCPYRAIESLYRKHCLEQGKQQLMPQEAGLAEEFLLTDNSAIWQTVEELDYLEVEAEAKMENLRAAVPGQPLALTARGGPKDTQPSYHHGNGPYNDVDIPGCWFFKLPHKDGNSCNVGSPFAKDFLPKMEDGTLQAGPGGASGPRALEINKMISFWRNAHKRISSQMVVWLPRSALPRAVIRHPDYDEEGLYGAILPQVVTAGTITRRAVEPTWLTASNARPDRVGSELKAMVQAPPGYTLVGADVDSQELWIAAVLGDAHFAGMHGCTAFGWMTLQGRKSRGTDLHSKTATTVGISREHAKIFNYGRIYGAGQPFAERLLMQFNHRLTQQEAAEKAQQMYAATKGLRWYRLSDEGEWLVRELNLPVDRTEGGWISLQDLRKVQRETARKSQWKKWEVVAERAWKGGTESEMFNKLESIATSDIPRTPVLGCCISRALEPSAVQEEFMTSRVNWVVQSSAVDYLHLMLVAMKWLFEEFAIDGRFCISIHDEVRYLVREEDRYRAALALQITNLLTRCMFAYKLGLNDLPQSVAFFSAVDIDRCLRKEVTMDCKTPSNPTGMERRYGIPQGEALDIYQIIELTKGSLEKRSQPGP
On to B4, for which the “target (unweighted spectral count)” value is 5.

B5: RNPS1 (protein, UniProt Q15287 1-305, looked up)
RNA-binding protein with …: MDLSGVKKKSLLGVKENNKKSSTRAPSPTKRKDRSDEKSKDRSKDKGATKESSEKDRGRDKTRKRRSASSGSSSTRSRSSSTSSSGSSTSTGSSSGSSSSSASSRSGSSSTSRSSSSSSSSGSPSPSRRRHDNRRRSRSKSKPPKRDEKERKRRSPSPKPTKVHIGRLTRNVTKDHIMEIFSTYGKIKMIDMPVERMHPHLSKGYAYVEFENPDEAEKALKHMDGGQIDGQEITATAVLAPWPRPPPRRFSPPRRMLPPPPMWRRSPPRMRRRSRSPRRRSPVRRRSRSPGRRRHRSRSSSNSSR
Turning to B5, the “target (unweighted spectral count)” value amounted to 7.

B6: HIST1H1D (protein, UniProt P16402 2-221, looked up)
Histone H1.3: SETAPLAPTIPAPAEKTPVKKKAKKAGATAGKRKASGPPVSELITKAVAASKERSGVSLAALKKALAAAGYDVEKNNSRIKLGLKSLVSKGTLVQTKGTGASGSFKLNKKAASGEGKPKAKKAGAAKPRKPAGAAKKPKKVAGAATPKKSIKKTPKKVKKPATAAGTKKVAKSAKKVKTPQPKKAAKSPAKAKAPKPKAAKPKSGKPKVTKAKKAAPKKK
Consider B6, for which the “target (unweighted spectral count)” value was 5.
